Measurements from publication PMC6073801.

Tests used:
[1] = target: ECD_FGFR1-Fc receptor (extracellular region of fibroblast growth factor receptor 1) (UniProt P11362)
[2] = target: ECD_FGFR1-Fc receptor (extracellular region of fibroblast growth factor receptor 1) (UniProt P11362); remark: listed apart in the source

Sequence of UniProt P11362 (P11362 22-376): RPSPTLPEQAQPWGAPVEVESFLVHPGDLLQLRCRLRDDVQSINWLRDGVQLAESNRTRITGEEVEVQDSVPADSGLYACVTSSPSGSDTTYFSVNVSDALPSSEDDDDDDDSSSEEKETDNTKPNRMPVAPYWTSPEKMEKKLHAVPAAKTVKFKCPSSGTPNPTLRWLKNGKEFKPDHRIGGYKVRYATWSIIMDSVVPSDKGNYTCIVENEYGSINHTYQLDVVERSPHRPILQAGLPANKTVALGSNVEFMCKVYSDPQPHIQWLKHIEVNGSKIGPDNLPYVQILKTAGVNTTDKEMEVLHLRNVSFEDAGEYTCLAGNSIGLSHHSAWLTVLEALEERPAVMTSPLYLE

Q: What does the source list for “FGF2 Cys78-α-amanitin/PrK96-MMAE conjugate (from UniProt P09038-2 23-155) (ligand)”?
A: cytotoxicity (AlamarBlue viability), FGFR1-positive NCI-H446 cells, reduction of viability at the highest tested concentration; no toxicity for FGFR1-negative HCC-15 [1]: 95%; internalization of the DyLight550-labelled conjugate, intracellular fluorescence, NCI-H520 (FGFR1 positive) against HCC-15 (FGFR1 negative) cells [2]: 2 times; internalization of the DyLight550-labelled conjugate, intracellular fluorescence, U2OS-FGFR1 against control U2OS cells [2]: 5 fold
